Results from US20170305997A1 (Janssen / Centocor, published 2017).

Legend:
human c-Met on cells [1] = biological target: T1, human c-Met on cells (human, UniProt P08581 25-1390); assay: cell-based or functional assay
human c-Met on cells [2] = biological target: T1, human c-Met on cells; assay: binding to NCI-H441 cells, anti-His fluorescence
Protocol: Purified FN3 domains (50 μL/well; 0 to 1000 nM) were added to the cells for 1 hour at 4° C. in duplicate plates. […] Cells were incubated with biotinylated-anti HIS antibody (diluted 1:160 in FACS stain buffer, 50 μL/well, R&D Systems, cat # BAM050) for 30 minutes at 4° C. […] Cells were washed three times with FACS stain buffer (150 μL/well) and left in FACS stain buffer (50 μL/well).

[3] = biological target: Recombinant human c-Met Fc chimera (human) (UniProt P08581); assay: SPR, serine scan in the ECB15 context

Binder	Inhibition of Proliferation of U87-MG cells (IC50) (human c-Met on cells [1])	pMet inhibition in H441 cells (IC50) (human c-Met on cells [1])	EC50 (human c-Met on cells [2])	Fold Change of KD against the parent [3]	also measured
P114AR7P95-D3 (designed binder) LPAPKNLVVSRVTEDSARLSWTAPDAAFDSFWIRYFEFLGSGEAIVLTVPGSERSYDLTGLKPGTEYVVNIMGVKGGSISYPLSAIFTTHHHHHH	1.7 nM	4.6 nM			
P114AR5P75-E9 (designed binder) LPAPKNLVVSRVTEDSARLSWTAPDAAFDSFFIRYDEFLRSGEAIVLTVPGSERSYDLTGLKPGTEYWVTILGVKGGLVSTPLSAIFTTHHHHHH	1190 nM	1.42 µM			
P114AR7P92-F3 (designed binder) LPAPKNLVVSRVTEDSARLSWTAPDAAFDSFWIRYFEFLGSGEAIVLTVPGSERSYDLTGLKPGTEYIVNIMGVKGGSISHPLSAIFTTHHHHHH	2.7 nM	8.3 nM			
A3 K78S (designed binder) LPAPKNLVVSEVTEDSARLSWDDPWAFYESFLIQYQESEKVGEAIVLTVPGSERSYDLTGLKPGTEYTVSIYGVHNVYKDTNMRGLPLSAIFTTAPAPAPAPAPLPAPKNLVVSRVTEDSARLSWTAPDAAFDSFWIRYFEFLGSGEAIVLTVPGSERSYDLTGLKPGTEYVVNIMGVKGGSISPPLSAIFTT				0.75 fold	
A3 V68S (designed binder) LPAPKNLVVSEVTEDSARLSWDDPWAFYESFLIQYQESEKVGEAIVLTVPGSERSYDLTGLKPGTEYTVSIYGVHNVYKDTNMRGLPLSAIFTTAPAPAPAPAPLPAPKNLVVSRVTEDSARLSWTAPDAAFDSFWIRYFEFLGSGEAIVLTVPGSERSYDLTGLKPGTEYSVNIMGVKGGKISPPLSAIFTT				9 fold	
A3 L39S (designed binder) LPAPKNLVVSEVTEDSARLSWDDPWAFYESFLIQYQESEKVGEAIVLTVPGSERSYDLTGLKPGTEYTVSIYGVHNVYKDTNMRGLPLSAIFTTAPAPAPAPAPLPAPKNLVVSRVTEDSARLSWTAPDAAFDSFWIRYFEFSGSGEAIVLTVPGSERSYDLTGLKPGTEYVVNIMGVKGGKISPPLSAIFTT				6.75 fold	
A3 F36S (designed binder) LPAPKNLVVSEVTEDSARLSWDDPWAFYESFLIQYQESEKVGEAIVLTVPGSERSYDLTGLKPGTEYTVSIYGVHNVYKDTNMRGLPLSAIFTTAPAPAPAPAPLPAPKNLVVSRVTEDSARLSWTAPDAAFDSFWIRYSEFLGSGEAIVLTVPGSERSYDLTGLKPGTEYVVNIMGVKGGKISPPLSAIFTT				68 fold	
A3 G40S (designed binder) LPAPKNLVVSEVTEDSARLSWDDPWAFYESFLIQYQESEKVGEAIVLTVPGSERSYDLTGLKPGTEYTVSIYGVHNVYKDTNMRGLPLSAIFTTAPAPAPAPAPLPAPKNLVVSRVTEDSARLSWTAPDAAFDSFWIRYFEFLSSGEAIVLTVPGSERSYDLTGLKPGTEYVVNIMGVKGGKISPPLSAIFTT				4.25 fold	
A3 N70S (designed binder) LPAPKNLVVSEVTEDSARLSWDDPWAFYESFLIQYQESEKVGEAIVLTVPGSERSYDLTGLKPGTEYTVSIYGVHNVYKDTNMRGLPLSAIFTTAPAPAPAPAPLPAPKNLVVSRVTEDSARLSWTAPDAAFDSFWIRYFEFLGSGEAIVLTVPGSERSYDLTGLKPGTEYVVSIMGVKGGKISPPLSAIFTT				14.8 fold	
A3 W32S (designed binder) LPAPKNLVVSEVTEDSARLSWDDPWAFYESFLIQYQESEKVGEAIVLTVPGSERSYDLTGLKPGTEYTVSIYGVHNVYKDTNMRGLPLSAIFTTAPAPAPAPAPLPAPKNLVVSRVTEDSARLSWTAPDAAFDSFSIRYFEFLGSGEAIVLTVPGSERSYDLTGLKPGTEYVVNIMGVKGGKISPPLSAIFTT				74.5 fold	
A3 P81S (designed binder) LPAPKNLVVSEVTEDSARLSWDDPWAFYESFLIQYQESEKVGEAIVLTVPGSERSYDLTGLKPGTEYTVSIYGVHNVYKDTNMRGLPLSAIFTTAPAPAPAPAPLPAPKNLVVSRVTEDSARLSWTAPDAAFDSFWIRYFEFLGSGEAIVLTVPGSERSYDLTGLKPGTEYVVNIMGVKGGKISSPLSAIFTT				4.25 fold	

Further lines, with some results ahead:

Inhibition of Proliferation of U87-MG cells (IC50) (human c-Met on cells [1])	pMet inhibition in H441 cells (IC50) (human c-Met on cells [1])	EC50 (human c-Met on cells [2])	Fold Change of KD against the parent [3]	Binder	also measured
17.4 nM	9.8 nM			P114AR7P95-B9 (designed binder) LPAPKNLVVSRVTEDSARLSWTAPDAAFDSFWIRYFEFLGSGEAIVLTVPGSERSYDLTGLKPGTEYVVQILGVKGGSISVPLSAIFTTHHHHHH	
672 nM	766 nM	22 nM		P114AR7P92-H5 (designed binder) LPAPKNLVVSRVTEDSARLSWTAPDAAFDSFWIRYLEFLLGGEAIVLTVPGSERSYDLTGLKPGTEYVVQIMGVKGGTVSPPLSAIFTTHHHHHH	
692 nM	659 nM	11.3 nM		P114AR7P95-G7 (designed binder) LPAPKNLVVSRVTEDSARLSWTAPDAAFDSFWIRYFELLSTGEAIVLTVPGSERSYDLTGLKPGTEYVVNIMGVKGGSISPPLSAIFTTHHHHHH	
9.3 nM	5 nM	1.4 nM		P114AR7P94-A3 (designed binder, also called P114AR7P95-A3; P114ARP94-A3) LPAPKNLVVSRVTEDSARLSWTAPDAAFDSFWIRYFEFLGSGEAIVLTVPGSERSYDLTGLKPGTEYVVNIMGVKGGKISPPLSAIFTTHHHHHH	
196 nM	124 nM	3.4 nM		P114AR7P94-E5 (designed binder) LPAPKNLVVSRVTEDSARLSWTAPDAAFDSFWIRYFEFLGSGEAIVLTVPGSERSYDLTGLKPGTEYAVNIMGVKGGRVSVPLSAIFTTHHHHHH	
104 nM	460 nM	3.8 nM		P114AR7P93-G8 (designed binder) LPAPKNLVVSRVTEDSARLSWTAPDAAFDSFWIRYFEFLGSGEAIVLTVPGSERSYDLTDLKPGTEYGVTINGVKGGRVSTPLSAIFTTHHHHHH	
130 nM	188 nM	4.4 nM		P114AR7P95-F10 (designed binder) LPAPKNLVVSRVTEDSARLSWTAPDAAFDSFWIRYFEFTTAGEAIVLTVPGSERSYDLTGLKPGTEYVVNIMGVKGGSISPPLSAIFTTHHHHHH	
124 nM	155 nM	5.9 nM		P114AR7P92-G8 (designed binder) LPAPKNLVVSRVTEDSARLSWTAPDAAFDSFVIRYFEFLGSGEAIVLTVPGSERSYDLTGLKPGTEYVVQILGVKGGYISIPLSAIFTTHHHHHH	
14.4 nM	16 nM	2.3 nM		P114AR7P93-D11 (designed binder) LPAPKNLVVSRVTEDSARLSWTAPDAAFDSFWIRYFEFLGSGEAIVLTVPGSERSYDLTGLKPGTEYVVGINGVKGGYISYPLSAIFTTHHHHHH	
270 nM	288 nM	12.9 nM		P114AR7P93-H9 (designed binder) LPAPKNLVVSRVTEDSARLSWTAPDAAFDSFWIRYFEFLGSGEAIVLTVPGSERSYDLTGLKPGTEYVVQIIGVKGGHISLPLSAIFTTHHHHHH	
209 nM	205 nM	3.2 nM		P114AR7P95-E3 (designed binder) LPAPKNLVVSRVTEDSARLSWTAPDAAFDSFWIRYFEFLGSGEAIVLTVPGSERSYDLTGLKPGTEYVVQIMGVKGGTVSPPLSAIFTTHHHHHH	
350 nM	165 nM	4.9 nM		P114AR7P92-F6 (designed binder) LPAPKNLVVSRVTEDSARLSWTAPDAAFDSFWIRYFEFLGSGEAIVLTVPGSERSYDLTGLKPGTEYVVNILGVKGGGLSVPLSAIFTTHHHHHH	
19.4 nM	19.5 nM	1.4 nM		P114AR7P95-D4 (designed binder) LPAPKNLVVSRVTEDSARLSWTAPDAAFDSFWIRYFEFLGSGEAIVLTVPGSERSYDLTGLKPGTEYVVQILGVKGGYISIPLSAIFTTHHHHHH	
281 nM	210 nM	4.1 nM		P114AR7P95-H8 (designed binder) LPAPKNLVVSRVTEDSARLSWTAPDAAFDSFWIRYFEFVSKGEAIVLTVPGSERSYDLTGLKPGTEYVVNIMGVKGGSISPPLSAIFTTHHHHHH	
			1 fold	ECB15 (designed binder, not shown: small tags and cut ends) MLPAPKNLVVSEVTEDSARLSWDDPWAFYESFLIQYQESEKVGEAIVLTVPGSERSYDLTGLKPGTEYTVSIYGVHNVYKDTNMRGLPLSAIFTTAPAPAPAPAPLPAPKNLVVSRVTEDSARLSWTAPDAAFDSFWIRYFEFLGSGEAIVLTVPGSERSYDLTGLKPGTEYVVNIMGVKGGKISPPLSAIFTT	Kd [3]: 0.4 nM; koff [3]: 0.000133 s⁻¹; kon [3]: 351000 M⁻¹ s⁻¹
